Reference: patent publication US20220064331A1 (Genentech, published 2022)

Columns and labels:
[1] = target: T1, human KLB / human FGFR1c complex on cells (human, UniProt Q86Z14 53-1044; P11362 22-822); experiment: cell-based or functional assay
[2] = target: T1, human KLB / human FGFR1c complex on …; experiment: radiolabeled ligand competition binding (iodinated FGF21) on HEK293 cells expressing human FGFR1c and human KLB
Protocol: For the radioligand cell binding assay, HEK293 cells that stably co-expressing KLB and/or FGFR1c were placed into 96-well plate at a density of 100,000 to 200,000 cells per 0.2 mL in binding buffer (DMEM with 1% bovine serum albumin (BSA), 50 mM HEPES, pH 7.2, 0.1% sodium azide and 350 mM human IgG). […] Competition reactions with cells were incubated for 2 h at room temperature.

FGFR1b = target: T2, FGFR1b (human, UniProt P11362-19 22-376, limits assumed); experiment: SPR (BIACORE T100), antibody captured by anti-human Fc on a CM5 chip, FGFR1 ECD protein injected, 25 °C, 1:1 Langmuir fit
T2 construct: soluble protein in SPR and ELISA, whole receptor on L6 cells in the luciferase assay
T2 sequence (looked up): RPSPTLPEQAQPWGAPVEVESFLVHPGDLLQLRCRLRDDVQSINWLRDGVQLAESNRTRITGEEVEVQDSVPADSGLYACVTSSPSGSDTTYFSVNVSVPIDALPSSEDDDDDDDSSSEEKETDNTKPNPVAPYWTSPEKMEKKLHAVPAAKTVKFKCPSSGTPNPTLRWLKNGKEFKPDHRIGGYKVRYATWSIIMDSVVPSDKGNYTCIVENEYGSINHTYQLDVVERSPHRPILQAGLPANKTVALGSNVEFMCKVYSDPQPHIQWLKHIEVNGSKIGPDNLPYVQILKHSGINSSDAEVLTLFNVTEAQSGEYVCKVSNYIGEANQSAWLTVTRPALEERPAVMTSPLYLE

| Binder | EC50 in GAL-ELK1 assay in HEK293 cells [1] | Kd [2] | Kd (FGFR1b) | koff (FGFR1b) | kon (FGFR1b) |
| --- | --- | --- | --- | --- | --- |
| hFGF21 (ligand, human, UniProt Q9NSA1 29-209, looked up, also called recombinant FGF21) HPIPDSSPLLQFGGQVRQRYLYTDDAQQTEAHLEIREDGTVGGAADQSPESLLQLKALKPGVIQILGVKTSRFLCQRPDGALYGSLHFDPEACSFRELLLEDGYNVYQSEAHGLPLHLPGNKSPHRDPAPRGPARFLPLPGLPPALPEPPGILAPQPPDVGSSDPLSMVGPSQGRSPSYAS | 4.7 nM | 5.3 nM | – | – | – |
| YW182.2 (antibody, V domains shown) VH: EVQLVESGGGLVQPGGSLRLSCAASGFTFTSTWISWVRQAPGKGLEWVGEIDPYDGDTYYADSVKGRFTISADTSKNTAYLQMNSLRAEDTAVYYCATEHFDAWVHYYVMDYWGQGTLVTVSS VL: DIQMTQSPSSLSASVGDRVTITCRASQDVSTAVAWYQQKPGKAPKLLIYSASFLYSGVPSRFSGSGSGTDFTLTISSLQPEDFATYYCQQSYTTPPTFGQGTKVEIK | – | – | 1.13 nM | 0.0022 s⁻¹ | 1.9e+06 M⁻¹ s⁻¹ |
